Assay results taken from the supplement of paper PMC9112550, “Optimization of the antimicrobial peptide Bac7 by deep mutational scanning” (BMC Biology, 2022).

test system: Escherichia coli TOP10; assay: shrunken log2 fold change of peptide-encoding DNA abundance (4.5 h post-induction vs induction); higher = less antimicrobial activity (less host growth inhibition); conditions: time post-induction: 4.5 h; library: site-saturation at positions 5, 18, 19, 20
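Also: peptides expressed intracellularly from a pBAD plasmid library in pooled LB shake-flask culture, induced with 0.3% L-arabinose, DNA abundance read by NGS, three biological replicates, DESeq2 with apeglm shrinkage.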

Sequence	shrunken log2 fold change
RRIRFRPPRLPRPRPRPSKRPRP	-0.565
RRIRFRPPRLPRPRPRPSLWPRP	0.29
RRIRFRPPRLPRPRPRPSMHPRP	-0.291
RRIRFRPPRLPRPRPRPSMWPRP	-0.579
RRIRFRPPRLPRPRPRPSNFPRP	-0.129
RRIRFRPPRLPRPRPRPSNVPRP	-0.989
RRIRFRPPRLPRPRPRPSPRPRP	0.426
RRIRFRPPRLPRPRPRPSPVPRP	-0.00168
RRIRFRPPRLPRPRPRPSQDPRP	0.0128
RRIRFRPPRLPRPRPRPSQTPRP	-0.304
RRIRFRPPRLPRPRPRPSQYPRP	-0.292
RRIRFRPPRLPRPRPRPSRVPRP	0.0914
RRIRFRPPRLPRPRPRPSSHPRP	-0.682
RRIRFRPPRLPRPRPRPSSWPRP	-0.105
RRIRFRPPRLPRPRPRPSVKPRP	-0.347
RRIRFRPPRLPRPRPRPSWGPRP	-0.243
RRIRFRPPRLPRPRPRPSYMPRP	-1.21
RRIRFRPPRLPRPRPRPSYSPRP	-0.903
RRIRFRPPRLPRPRPRPTADPRP	0.359
RRIRFRPPRLPRPRPRPTCYPRP	-0.23
RRIRFRPPRLPRPRPRPTDMPRP	0.0617
RRIRFRPPRLPRPRPRPTHPPRP	-0.0806
RRIRFRPPRLPRPRPRPTHQPRP	2.65
RRIRFRPPRLPRPRPRPTHSPRP	0.207
RRIRFRPPRLPRPRPRPTKNPRP	-0.0239

Sequence	shrunken log2 fold change
RRIRFRPPRLPRPRPRPTLCPRP	0.107
RRIRFRPPRLPRPRPRPTLPPRP	0.23
RRIRFRPPRLPRPRPRPTMDPRP	-0.246
RRIRFRPPRLPRPRPRPTMVPRP	-0.129
RRIRFRPPRLPRPRPRPTMYPRP	-0.459
RRIRFRPPRLPRPRPRPTNFPRP	-0.0824
RRIRFRPPRLPRPRPRPTNGPRP	-0.137
RRIRFRPPRLPRPRPRPTNIPRP	-0.959
RRIRFRPPRLPRPRPRPTNRPRP	-0.346
RRIRFRPPRLPRPRPRPTPAPRP	0.951
RRIRFRPPRLPRPRPRPTPVPRP	0.706
RRIRFRPPRLPRPRPRPTRFPRP	0.429
RRIRFRPPRLPRPRPRPTTIPRP	-0.548
RRIRFRPPRLPRPRPRPTVEPRP	0.0624
RRIRFRPPRLPRPRPRPTVNPRP	2.04
RRIRFRPPRLPRPRPRPTVQPRP	0.0692
RRIRFRPPRLPRPRPRPVCGPRP	0.277
RRIRFRPPRLPRPRPRPVDTPRP	-0.123
RRIRFRPPRLPRPRPRPVFRPRP	-0.362
RRIRFRPPRLPRPRPRPVFWPRP	0.423
RRIRFRPPRLPRPRPRPVHAPRP	0.184
RRIRFRPPRLPRPRPRPVHFPRP	-0.263
RRIRFRPPRLPRPRPRPVHYPRP	-0.195
RRIRFRPPRLPRPRPRPVICPRP	0.0508
RRIRFRPPRLPRPRPRPVIKPRP	-0.339

Sequence	shrunken log2 fold change
RRIRFRPPRLPRPRPRPVLFPRP	-0.172
RRIRFRPPRLPRPRPRPVMKPRP	-0.189
RRIRFRPPRLPRPRPRPVMMPRP	-0.43
RRIRFRPPRLPRPRPRPVMSPRP	-0.153
RRIRFRPPRLPRPRPRPVNNPRP	-0.316
RRIRFRPPRLPRPRPRPVNRPRP	0.188
RRIRFRPPRLPRPRPRPVPAPRP	0.217
RRIRFRPPRLPRPRPRPVQDPRP	-0.209
RRIRFRPPRLPRPRPRPVQFPRP	-0.652
RRIRFRPPRLPRPRPRPVQMPRP	0.189
RRIRFRPPRLPRPRPRPVQSPRP	-0.16
RRIRFRPPRLPRPRPRPVQWPRP	0.184
RRIRFRPPRLPRPRPRPVRIPRP	-0.0436
RRIRFRPPRLPRPRPRPVTIPRP	-0.118
RRIRFRPPRLPRPRPRPVVDPRP	-0.232
RRIRFRPPRLPRPRPRPVYHPRP	-1.19
RRIRFRPPRLPRPRPRPWAMPRP	-0.0609
RRIRFRPPRLPRPRPRPWAQPRP	-0.141
RRIRFRPPRLPRPRPRPWAVPRP	-0.0667
RRIRFRPPRLPRPRPRPWCPPRP	-0.155
RRIRFRPPRLPRPRPRPWDIPRP	-0.0124
RRIRFRPPRLPRPRPRPWDSPRP	-0.21
RRIRFRPPRLPRPRPRPWHDPRP	0.0237
RRIRFRPPRLPRPRPRPWKIPRP	-0.0171
RRIRFRPPRLPRPRPRPWLFPRP	-0.0194

Sequence	shrunken log2 fold change
RRIRFRPPRLPRPRPRPWNKPRP	-0.722
RRIRFRPPRLPRPRPRPWNVPRP	-0.157
RRIRFRPPRLPRPRPRPWPKPRP	0.125
RRIRFRPPRLPRPRPRPWQKPRP	-0.097
RRIRFRPPRLPRPRPRPWSFPRP	-0.34
RRIRFRPPRLPRPRPRPWSWPRP	-0.169
RRIRFRPPRLPRPRPRPWTGPRP	-0.00822
RRIRFRPPRLPRPRPRPWTQPRP	-0.959
RRIRFRPPRLPRPRPRPWWDPRP	-0.0745
RRIRFRPPRLPRPRPRPWWLPRP	-0.0533
RRIRFRPPRLPRPRPRPWYAPRP	-0.791
RRIRFRPPRLPRPRPRPWYDPRP	0.13
RRIRFRPPRLPRPRPRPYACPRP	0.0338
RRIRFRPPRLPRPRPRPYASPRP	-0.0651
RRIRFRPPRLPRPRPRPYCWPRP	-0.652
RRIRFRPPRLPRPRPRPYCYPRP	-0.749
RRIRFRPPRLPRPRPRPYDEPRP	-0.526
RRIRFRPPRLPRPRPRPYDMPRP	-0.209
RRIRFRPPRLPRPRPRPYDSPRP	-0.924
RRIRFRPPRLPRPRPRPYEPPRP	-0.204
RRIRFRPPRLPRPRPRPYFSPRP	-0.245
RRIRFRPPRLPRPRPRPYFVPRP	-0.59
RRIRFRPPRLPRPRPRPYHSPRP	-0.0452
RRIRFRPPRLPRPRPRPYIPPRP	-1.8
RRIRFRPPRLPRPRPRPYKSPRP	-0.382

Sequence	shrunken log2 fold change
RRIRFRPPRLPRPRPRPYKVPRP	-0.614
RRIRFRPPRLPRPRPRPYLGPRP	-0.11
RRIRFRPPRLPRPRPRPYLTPRP	-0.875
RRIRFRPPRLPRPRPRPYMHPRP	-0.72
RRIRFRPPRLPRPRPRPYMLPRP	-0.61
RRIRFRPPRLPRPRPRPYMQPRP	-0.68
RRIRFRPPRLPRPRPRPYMTPRP	-0.49
RRIRFRPPRLPRPRPRPYMWPRP	-1.43
RRIRFRPPRLPRPRPRPYNEPRP	-0.812
RRIRFRPPRLPRPRPRPYQTPRP	-0.0618
RRIRFRPPRLPRPRPRPYQYPRP	0.0631
RRIRFRPPRLPRPRPRPYTDPRP	-0.233
RRIRFRPPRLPRPRPRPYTMPRP	-1.06
RRIRFRPPRLPRPRPRPYTSPRP	-0.256
RRIRFRPPRLPRPRPRPYVHPRP	-1.75
RRIRFRPPRLPRPRPRPYVKPRP	-0.787
RRIRFRPPRLPRPRPRPYVMPRP	-0.651
RRIRFRPPRLPRPRPRPYVNPRP	-1.52
RRIRFRPPRLPRPRPRPYWMPRP	-0.371
RRIRFRPPRLPRPRPRPYWTPRP	-0.651
RRIRFRPPRLPRPRPRPYWWPRP	-0.198
RRIRFRPPRLPRPRPRPYYFPRP	-0.706
RRIRGRPPRLPRPRPRPAAKPRP	1.02
RRIRGRPPRLPRPRPRPAALPRP	0.912
RRIRGRPPRLPRPRPRPAANPRP	0.911

Sequence	shrunken log2 fold change
RRIRGRPPRLPRPRPRPADHPRP	0.625
RRIRGRPPRLPRPRPRPAEAPRP	1.08
RRIRGRPPRLPRPRPRPAEEPRP	1.15
RRIRGRPPRLPRPRPRPAESPRP	0.764
RRIRGRPPRLPRPRPRPAGEPRP	0.479
RRIRGRPPRLPRPRPRPAHHPRP	0.452
RRIRGRPPRLPRPRPRPAHTPRP	0.761
RRIRGRPPRLPRPRPRPALFPRP	1.23
RRIRGRPPRLPRPRPRPALSPRP	1.31
RRIRGRPPRLPRPRPRPANFPRP	0.0804
RRIRGRPPRLPRPRPRPANGPRP	0.378
RRIRGRPPRLPRPRPRPANPPRP	0.476
RRIRGRPPRLPRPRPRPAQGPRP	0.313
RRIRGRPPRLPRPRPRPAQWPRP	0.933
RRIRGRPPRLPRPRPRPARRPRP	0.739
RRIRGRPPRLPRPRPRPAVCPRP	0.938
RRIRGRPPRLPRPRPRPAWLPRP	0.694
RRIRGRPPRLPRPRPRPAYCPRP	0.114
RRIRGRPPRLPRPRPRPAYPPRP	-0.0884
RRIRGRPPRLPRPRPRPCAPPRP	0.826
RRIRGRPPRLPRPRPRPCATPRP	2.7
RRIRGRPPRLPRPRPRPCCIPRP	0.214
RRIRGRPPRLPRPRPRPCCWPRP	0.878
RRIRGRPPRLPRPRPRPCDAPRP	0.473
RRIRGRPPRLPRPRPRPCDNPRP	0.0785
